The source of these data is patent US20160108115 (published 2016).

Like-named read-outs stand apart in the source and are kept apart here.

The target of assay [1] is T1, mouse C5 (mouse, UniProt P06684).
T1 chain 1: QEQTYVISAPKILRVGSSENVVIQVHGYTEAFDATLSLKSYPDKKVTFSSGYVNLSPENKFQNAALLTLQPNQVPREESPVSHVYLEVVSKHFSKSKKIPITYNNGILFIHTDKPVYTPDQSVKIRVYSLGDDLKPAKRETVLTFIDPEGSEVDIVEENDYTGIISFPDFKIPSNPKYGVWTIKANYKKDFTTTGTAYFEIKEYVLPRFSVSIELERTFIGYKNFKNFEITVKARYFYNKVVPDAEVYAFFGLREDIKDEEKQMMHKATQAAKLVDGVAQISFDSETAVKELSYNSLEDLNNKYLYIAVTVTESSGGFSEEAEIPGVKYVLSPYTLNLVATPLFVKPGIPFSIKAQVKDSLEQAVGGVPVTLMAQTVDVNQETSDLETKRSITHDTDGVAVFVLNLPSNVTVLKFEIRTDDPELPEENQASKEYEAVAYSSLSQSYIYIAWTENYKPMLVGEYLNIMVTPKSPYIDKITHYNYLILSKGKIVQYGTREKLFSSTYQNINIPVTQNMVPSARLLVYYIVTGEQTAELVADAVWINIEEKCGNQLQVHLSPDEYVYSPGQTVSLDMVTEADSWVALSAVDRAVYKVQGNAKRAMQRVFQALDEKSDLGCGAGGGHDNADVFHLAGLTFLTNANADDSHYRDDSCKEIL
T1 chain 2: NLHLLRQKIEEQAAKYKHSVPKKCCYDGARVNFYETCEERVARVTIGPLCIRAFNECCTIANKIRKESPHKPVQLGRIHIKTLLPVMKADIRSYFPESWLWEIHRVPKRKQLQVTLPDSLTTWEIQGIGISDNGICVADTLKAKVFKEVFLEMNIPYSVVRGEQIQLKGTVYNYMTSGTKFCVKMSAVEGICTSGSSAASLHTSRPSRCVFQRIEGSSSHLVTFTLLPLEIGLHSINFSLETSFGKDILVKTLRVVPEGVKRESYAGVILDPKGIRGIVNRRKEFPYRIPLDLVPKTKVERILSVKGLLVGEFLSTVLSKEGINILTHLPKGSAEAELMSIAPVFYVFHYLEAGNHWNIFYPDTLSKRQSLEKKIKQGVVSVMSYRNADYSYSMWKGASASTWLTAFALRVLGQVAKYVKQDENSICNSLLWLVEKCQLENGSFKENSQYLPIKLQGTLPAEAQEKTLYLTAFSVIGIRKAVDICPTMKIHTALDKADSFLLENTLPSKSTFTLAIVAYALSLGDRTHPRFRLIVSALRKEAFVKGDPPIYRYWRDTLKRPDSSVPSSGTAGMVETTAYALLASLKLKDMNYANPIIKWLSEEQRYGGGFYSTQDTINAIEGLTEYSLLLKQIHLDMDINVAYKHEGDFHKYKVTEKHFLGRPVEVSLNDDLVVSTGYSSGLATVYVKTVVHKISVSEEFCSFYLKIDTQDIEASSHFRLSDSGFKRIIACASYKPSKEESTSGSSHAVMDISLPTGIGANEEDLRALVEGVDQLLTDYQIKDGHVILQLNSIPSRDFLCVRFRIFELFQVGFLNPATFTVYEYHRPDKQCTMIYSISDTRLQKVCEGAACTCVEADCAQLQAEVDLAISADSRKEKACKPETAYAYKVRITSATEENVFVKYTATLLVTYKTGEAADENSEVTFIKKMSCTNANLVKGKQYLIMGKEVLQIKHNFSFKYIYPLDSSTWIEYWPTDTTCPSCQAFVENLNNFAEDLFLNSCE
Kind of assay: SPR, pH 6.0. A general note: In SPR one partner is held on a chip, and binding of the other changes the refractive index at the surface.

In assay [2] the target is T1, mouse C5. Kind of assay: SPR, pH 7.4.
Assay [3] has as its target T2, human C5 (human, UniProt P01031). In words: SPR.
The target of assay [4] is T2, human C5. Kind of assay: SPR. The source holds these as a separate data set.
The target in assay [5] is T1, mouse C5. In words: SPR, pH 6.0.
The next assay concerns the target T3, FcγRIIb/c (human, UniProt P31994).
T3 chain: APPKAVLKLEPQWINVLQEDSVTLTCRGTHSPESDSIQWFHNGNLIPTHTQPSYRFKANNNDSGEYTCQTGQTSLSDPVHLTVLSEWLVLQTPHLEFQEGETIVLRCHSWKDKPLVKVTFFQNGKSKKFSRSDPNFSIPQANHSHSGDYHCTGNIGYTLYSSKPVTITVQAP
In words: SPR, pH 7.4.

For a further assay, the target named is T4, FcγRIIa (human, UniProt P12318).
T4 chain: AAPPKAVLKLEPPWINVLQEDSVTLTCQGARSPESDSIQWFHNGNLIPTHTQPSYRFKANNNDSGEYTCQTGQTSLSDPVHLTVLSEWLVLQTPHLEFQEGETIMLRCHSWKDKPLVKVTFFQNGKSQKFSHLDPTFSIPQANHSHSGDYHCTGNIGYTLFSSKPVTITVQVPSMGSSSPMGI
In words: SPR, pH 7.4.

B1: BHL011 (antibody, V domains shown)
VH: QVQLQQPGAELVRPGTSVKLSCKASGYTFTSSWMHWVKQRPGQGLEWIGVIDPSDSYTNYNQKFKGKATLTVDTSSSTAYMQLSSLTSEDSAVYYCARGGGSSYNRYFDVWGTGTTVTVSS
VL: NIMMTQSPSSLAVSAGEKVTMSCKSSQSVLYSSNQKNYLAWYQQKPGQSPKLLIYWASTRESGVPDRFTGSGSGTDFTLTISSVQAEDLAVYYCAQYLSSRTFGGGTKLEIKR
The term Kd denotes the free concentration of one partner at which half of the binding sites on the other are occupied at equilibrium, for simple one-to-one binding. A higher Kd goes with lower affinity. Regarding B1, the Kd worked out at 53.6 nM with mouse C5 [1] and 0.0952 nM in the assay with mouse C5 [2].

B2: EHL004 (antibody, V domains shown)
VH: QVQLVQSGAEVKKPGASVKVSCKASGYIFSNYWIQWVRQAPGQGLEWMGEILPGSGHTEYTENFKDRVTMTRDTSTSTVYMELSSLRSEDTAVYYCARYFFGSSPNWYFDVWGQGTLVTVSS
VL: DIQMTQSPSSLSASVGDRVTITCGASENIYHALNWYQQKPGKAPKLLIYGATNLADGVPSRFSGSGSGTDFTLTISSLQPEDFATYYCQNVLNTPLTFGQGTKVEIK
As for B2, the results for the Kd with human C5 [3] and with human C5 [4] were 0.135 nM and 374 nM, respectively.

B3: EHL046 (antibody, V domains shown)
VH: QVQLVQSGAEVKKPGASVKVSCKASGHIFSNYWIQWVRQAPGQGLEWMGEIHPGSGSTEYTENFKDRVTMTRDTSTSTVYMELSSLRSEDTAVYYCARYFFGSSPNWYFDVWGQGTLVTVSS
VL: DIQMTQSPSSLSASVGDRVTITCGASENIYHALNWYQQKPGKAPKLLIYGATNLADGVPSRFSGSGSGTDFTLTISSLQPEDFATYYCQNVLNTPLTFGQGTKVEIK
Turning to B3, in the assay with human C5 [3], binding was put at a Kd of 1.15 nM.

B4: BHL009 (antibody)
chain 1: QVQLQQPGAELVRPGTSVKLSCKASGYTFTSSWMHWVKQRPGQGLEWIGVIDPHDSYTNYNQKFKGKATLTVDTSSSTAYMQLSSLTSEDSAVYYCARGGGSSYNRYFDVWGTGTTVTVSSASTKGPSVFPLAPCSRSTSESTAALGCLVKDYFPEPVTVSWNSGALTSGVHTFPAVLQSSGLYSLSSVVTVPSSNFGTQTYTCNVDHKPSNTKVDKTVERKCCVECPPCPAPPVAGPSVFLFPPKPKDTLMISRTPEVTCVVVDVSQEDPEVQFNWYVDGVEVHNAKTKPREEQFNSTYRVVSVLTVLHQDWLNGKEYKCKVSNKGLPSSIEKTISKAKGQPREPQVYTLPPSQEEMTKNQVSLTCLVKGFYPSDIAVEWESNGQPENNYKTTPPVLDSDGSFFLYSRLTVDKSRWQEGNVFSCSVLHEALHSHYTQKSLSLSLGK
chain 2: not shown
For B4, the binding result with mouse C5 [5] is on record as “no binding”. This molecule yielded a Kd in the assay with mouse C5 [2] of 4.19 nM.

B5: BHL006 (antibody)
chain 1: QVQLQQPGAELVRPGTSVKLSCKASGYTFTSSWMHWVKQRPGQGLEWIGVIDPHDSYTNYNQKFKGKATLTVDTSSSTAYMQLSSLTSEDSAVYYCARGGGSSYNRYFDVWGTGTTVTVSSASTKGPSVFPLAPCSRSTSESTAALGCLVKDYFPEPVTVSWNSGALTSGVHTFPAVLQSSGLYSLSSVVTVPSSNFGTQTYTCNVDHKPSNTKVDKTVERKCCVECPPCPAPPVAGPSVFLFPPKPKDTLMISRTPEVTCVVVDVSQEDPEVQFNWYVDGVEVHNAKTKPREEQFNSTYRVVSVLTVLHQDWLNGKEYKCKVSNKGLPSSIEKTISKAKGQPREPQVYTLPPSQEEMTKNQVSLTCLVKGFYPSDIAVEWESNGQPENNYKTTPPVLDSDGSFFLYSRLTVDKSRWQEGNVFSCSVMHEALHNHYTQKSLSLSLGK
chain 2: not shown
With B5, the binding result with mouse C5 [5] is reported as “no binding”. This molecule yielded a Kd in the assay with mouse C5 [2] of 3.49 nM.

B6: eculizumab (full length) (antibody)
chain 1: QVQLVQSGAEVKKPGASVKVSCKASGYIFSNYWIQWVRQAPGQGLEWMGEILPGSGSTEYTENFKDRVTMTRDTSTSTVYMELSSLRSEDTAVYYCARYFFGSSPNWYFDVWGQGTLVTVSSASTKGPSVFPLAPCSRSTSESTAALGCLVKDYFPEPVTVSWNSGALTSGVHTFPAVLQSSGLYSLSSVVTVPSSNFGTQTYTCNVDHKPSNTKVDKTVERKCCVECPPCPAPPVAGPSVFLFPPKPKDTLMISRTPEVTCVVVDVSQEDPEVQFNWYVDGVEVHNAKTKPREEQFNSTYRVVSVLTVLHQDWLNGKEYKCKVSNKGLPSSIEKTISKAKGQPREPQVYTLPPSQEEMTKNQVSLTCLVKGFYPSDIAVEWESNGQPENNYKTTPPVLDSDGSFFLYSRLTVDKSRWQEGNVFSCSVMHEALHNHYTQKSLSLSLGK
chain 2: DIQMTQSPSSLSASVGDRVTITCGASENIYGALNWYQQKPGKAPKLLIYGATNLADGVPSRFSGSGSGTDFTLTISSLQPEDFATYYCQNVLNTPLTFGQGTKVEIKRTVAAPSVFIFPPSDEQLKSGTASVVCLLNNFYPREAKVQWKVDNALQSGNSQESVTEQDSKDSTYSLSSTLTLSKADYEKHKVYACEVTHQGLSSPVTKSFNRGEC
Turning to B6, the values for the dissociation constant Kd with FcγRIIb/c and with FcγRIIa were 9.84 µM and 2580 nM, respectively.
